Reference: paper PMC5330279

Assays:
[1] = molecular target: hCRBPII Q108K:K40L:Y60W (human); assay: SEC
[2] = molecular target: hCRBPII E72A (human)

Substance | stoichiometry N [1] | percent dimer [2] [%]
hCRBPII Q108K:K40L:Y60W (natural protein) | 2 | 
hCRBPII E72A (natural protein) |  | 50
